Test results published in patent USRE50268.

Target: BG505 SOSIP.664 gp140 trimer (HIV-1 isolate BG505)
Assay: single-particle negative-stain electron microscopy

B1: PGDM1400 Fab (Fab, V domains shown)
VH: QVHLTQSGPEVRKPGTSVKVSCKAPGNTLKTYDLHWVRSVPGQGLQWMGWISHEGDKKVIVERFKAKVTIDWDRSTNTAYLQLSGLTSGDTAVYYCAKGSKHRLRDYALYDDDGALNWAVDVDYLSNLEFWGQGTAVTVSS
VL: DFVLTQSPHSLSVTPGESASISCKSSHSLIHGDRNNYLAWYVQKPGRSPQLLIYLASSRASGVPDRFSGSGSDKDFTLKISRVETEDVGTYYCMQGRESPWTFGQGTKVDIK
modifications: sulfated tyrosine at position 100F (Tys100F), seen in the electron density map of the Fab crystal structure
stoichiometry (Fab per trimer): 1
